According to patent US20160109449A1 (JULIUS MAXIMILIANS UNIVERSITAET WUERZBURG, published 2016):

How the values were obtained:
Assay in all cases: peptide array on glass slide, fluorescent secondary antibody
[1] = target: IsaA oligopeptide SEQ ID NO: 23 (Staphylococcus aureus)
[2] = target: IsaA oligopeptide SEQ ID NO: 26 (Staphylococcus aureus)
[3] = target: IsaA oligopeptide SEQ ID NO: 39 (Staphylococcus aureus)
[4] = target: IsaA oligopeptide SEQ ID NO: 43 (Staphylococcus aureus)
[5] = target: IsaA oligopeptide SEQ ID NO: 46 (Staphylococcus aureus)
[6] = target: IsaA oligopeptide SEQ ID NO: 50 (Staphylococcus aureus)
[7] = target: IsaA oligopeptide SEQ ID NO: 51 (Staphylococcus aureus)

## control antibodies (peptide array) (antibody)
[1]
  Binding (fluorescence intensity): 367
[2]
  Binding (fluorescence intensity): 261
[3]
  Binding (fluorescence intensity): 109
[4]
  Binding (fluorescence intensity): 44.3
[5]
  Binding (fluorescence intensity): -24.3
[6]
  Binding (fluorescence intensity): -49.7
[7]
  Binding (fluorescence intensity): 58
